B1: TT1-ELP: phthalocyanine TT1 coupled by CuAAC triazole linker to the N-terminus of ELP (SEQ ID No: 11) (conjugate)
chain: MWVPGVGVPGMGVPGVGVPGVGVPGVGVPGMGVPGVGVPGVGVPGVGVPGMGVPGVGVPGVGVPGVGVPGMGVPGVGVPGVGVPGVGVPGMGVPGVGVPGVGVPGVGVPGMGVPGVGVPGVGVPGVGVPGMGVPGVGVPGVGVPGVGVPGMGVPGVGVPGVGVPGVGVPGMGVPGVGVPGVGVPGVGVPGMGVPGVGVPGVG
modifications: N-terminal phthalocyanine TT1 via triazole; Elastin-like polypeptide

Legend:
Type in all cases: physicochemical
[1] = Singlet oxygen quantum yield of the phthalocyanine; conditions: measured in dimethylsulfoxide
Description: It has particularly outstanding photo-physical properties. […] Singlet oxygen quantum yield of this phthalocyanine, measured in dimethylsulfoxide, mounts up to ϕΔ=0.72. The presence of the tert-butyl groups not only minimizes the formation of molecular aggregates, but also increases the solubility of the compound in organic solvents.

[2] = Dynamic light scattering size distribution of TT1-ELP and TT1-ELP^PhOx
Method: Dynamic light scattering: The DLS measurements of TT1-ELP (at 20° C. and 37° C.) and TT1-ELP^PhOx (at 37° C.) are performed on a Nano ZS 90 instrument (HeNe laser 632.8 nm, Malvern) at a 90° angle at a constant position in the cuvette (constant scattering volume at 30 μM concentration in 1×PBS, pH 7.4). The values of Z-average hydrodynamic diameter (DH) and polydispersity index (PDI) are obtained from the 2nd order cumulant fit using a CONTIN-like algorithm.
In order to mimic the self-assembly and photooxidation-triggered disassembly profile of TT1-ELP, dynamic light scattering (DLS) measurements are performed in physiological conditions (PBS pH 7.4 at 37° C.) on TT1-ELP and TT1-ELP^PhOx.
Due to the stacking tendency of TT1 upon direct dissolution of TT1-ELP in PBS at ambient temperature, 60 nm micelles with narrow size distribution (PDI 0.2) are observed in DLS measurement conducted at 165° angle via 657 nm laser (FIG. 5-A)).

[3] = Turbidity assay, onset transition temperature (Tt) of ELP and TT1 bioconjugates in PBS; conditions: for Tt in PBS: PBS pH 7.4, onset transition temperature
Method: UV-Vis spectroscopy: The transition temperatures (Tt) are determined by following the turbidity at 600 or 500 nm absorption versus temperature on Agilent Cary 100 UV-Vis spectrophotometer equipped with a multicell thermo-electric temperature controller. Turbidity is measured over a temperature range from 10 to 60° C. at 1° C. min^−1 of a scan rate before and after the conjugation reaction at three concentrations of phthalocyanine (10, 20 and 30 μM) in phosphate buffer (PBS, pH 7.4).
The thermo-responsive character of ELP, before and after TT1 conjugation, is measured by turbidity assays in phosphate buffer (PBS, pH 7.4) following the absorbance at 600 and 500 nm, respectively, over a temperature range from 10 to 60° C.
The same analysis is carried out for TT1-ELP(O) (obtained by chemical oxidation of methionyl groups) and TT1-ELP^PhOx (obtained by oxidation triggered by photo-irradiation of methionyl groups).

[4] = direct dissolution in PBS, ambient temperature, 165° angle, 657 nm laser

Row | Molecule | Singlet oxygen quantum yield ϕΔ [1] | particle size (hydrodynamic diameter) ([2]; above Tt, 37° C., PBS pH 7.4) | PDI [2, 4] | micelle size [2, 4] | aggregation state by DLS ([2]; temperature dropped back to 20° C., PBS pH 7.4) | Tt in PBS ([3]; 10 μM) | Tt in PBS ([3]; 20 μM) | solubility ([3]; 10, 20 and 30 μM in PBS pH 7.4 at 10° C.) | drop of Tt after conjugation of TT1 ([3]; versus ELP, PBS pH 7.4)
1 | 9(10),16(17),23(24)-Tri-tert-butyl-2-carboxy-5,28:14,19-diimino-7,12:21,26-dinitrilotetrabenzo[c,h,m,r][1,6,11,16]tetraazacycloeicosinato-(2)-N^29,N^30,N^31,N^32zinc(II) [TT1] | 0.72 |  |  |  |  |  |  |  | 
2 | B1 |  | 1.5 μm | 0.2 | 60 nm | disassembly of these aggregates | 29 °C | 28 °C | fully soluble | approximately 10 °C
